Results reported in US7118902.

Molecular target: bovine articular cartilage aggrecan, P13608
Sequence (P13608 17-2364): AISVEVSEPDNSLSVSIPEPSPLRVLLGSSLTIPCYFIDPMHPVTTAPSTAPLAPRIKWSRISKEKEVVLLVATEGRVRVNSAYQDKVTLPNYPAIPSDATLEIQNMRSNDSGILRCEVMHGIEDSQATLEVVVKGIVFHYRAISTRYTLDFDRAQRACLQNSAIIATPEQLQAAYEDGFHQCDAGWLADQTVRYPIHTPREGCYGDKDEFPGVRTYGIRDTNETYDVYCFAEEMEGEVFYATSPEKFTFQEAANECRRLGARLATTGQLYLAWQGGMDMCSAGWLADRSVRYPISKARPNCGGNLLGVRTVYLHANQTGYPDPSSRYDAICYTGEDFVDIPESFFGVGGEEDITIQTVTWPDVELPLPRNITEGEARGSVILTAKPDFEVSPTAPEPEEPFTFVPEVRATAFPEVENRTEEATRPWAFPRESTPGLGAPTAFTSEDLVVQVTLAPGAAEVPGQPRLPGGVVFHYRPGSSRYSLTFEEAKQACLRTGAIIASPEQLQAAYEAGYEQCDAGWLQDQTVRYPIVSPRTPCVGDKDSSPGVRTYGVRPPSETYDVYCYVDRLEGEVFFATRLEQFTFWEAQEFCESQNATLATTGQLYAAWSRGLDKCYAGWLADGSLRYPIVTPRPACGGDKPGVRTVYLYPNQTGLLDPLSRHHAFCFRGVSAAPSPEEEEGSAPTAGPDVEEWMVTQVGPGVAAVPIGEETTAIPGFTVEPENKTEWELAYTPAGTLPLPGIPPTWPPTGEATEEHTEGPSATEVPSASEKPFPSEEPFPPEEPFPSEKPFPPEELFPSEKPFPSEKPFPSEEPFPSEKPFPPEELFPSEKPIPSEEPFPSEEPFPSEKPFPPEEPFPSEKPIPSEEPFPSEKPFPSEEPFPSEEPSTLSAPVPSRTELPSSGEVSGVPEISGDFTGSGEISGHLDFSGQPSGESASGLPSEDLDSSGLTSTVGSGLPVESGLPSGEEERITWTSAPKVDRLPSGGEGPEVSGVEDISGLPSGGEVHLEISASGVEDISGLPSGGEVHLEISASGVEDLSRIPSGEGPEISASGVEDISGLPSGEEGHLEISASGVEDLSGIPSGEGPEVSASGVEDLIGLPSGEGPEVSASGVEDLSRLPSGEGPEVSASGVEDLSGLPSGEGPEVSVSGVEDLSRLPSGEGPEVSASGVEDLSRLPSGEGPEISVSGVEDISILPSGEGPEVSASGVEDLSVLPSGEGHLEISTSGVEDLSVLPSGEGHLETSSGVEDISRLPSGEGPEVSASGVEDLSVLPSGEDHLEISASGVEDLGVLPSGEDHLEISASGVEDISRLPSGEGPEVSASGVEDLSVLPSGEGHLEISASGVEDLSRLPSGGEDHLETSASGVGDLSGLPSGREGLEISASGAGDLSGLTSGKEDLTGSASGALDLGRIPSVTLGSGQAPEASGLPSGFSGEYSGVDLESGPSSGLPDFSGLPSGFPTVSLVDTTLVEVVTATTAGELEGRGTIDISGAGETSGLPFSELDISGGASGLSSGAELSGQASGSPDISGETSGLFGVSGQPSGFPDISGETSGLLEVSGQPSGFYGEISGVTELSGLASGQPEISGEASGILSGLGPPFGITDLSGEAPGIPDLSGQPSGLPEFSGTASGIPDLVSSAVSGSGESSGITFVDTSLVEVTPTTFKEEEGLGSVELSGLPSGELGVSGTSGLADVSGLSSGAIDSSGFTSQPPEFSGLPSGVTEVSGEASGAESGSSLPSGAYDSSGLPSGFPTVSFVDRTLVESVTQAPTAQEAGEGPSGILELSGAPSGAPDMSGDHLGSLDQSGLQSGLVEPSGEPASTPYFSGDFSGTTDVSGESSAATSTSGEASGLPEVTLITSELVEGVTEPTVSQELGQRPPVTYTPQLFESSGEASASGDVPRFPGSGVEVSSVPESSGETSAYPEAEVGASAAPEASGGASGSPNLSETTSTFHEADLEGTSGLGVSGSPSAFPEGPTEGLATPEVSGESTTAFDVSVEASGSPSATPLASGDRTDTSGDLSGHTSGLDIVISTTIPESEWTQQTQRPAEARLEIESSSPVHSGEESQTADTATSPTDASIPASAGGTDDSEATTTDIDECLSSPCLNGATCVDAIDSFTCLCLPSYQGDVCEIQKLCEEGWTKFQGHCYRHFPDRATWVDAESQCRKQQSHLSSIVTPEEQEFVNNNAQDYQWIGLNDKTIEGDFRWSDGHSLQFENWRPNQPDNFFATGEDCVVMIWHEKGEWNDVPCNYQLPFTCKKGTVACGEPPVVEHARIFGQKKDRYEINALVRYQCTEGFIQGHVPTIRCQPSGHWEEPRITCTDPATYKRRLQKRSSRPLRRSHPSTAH

B1: furin-processed construct I (truncated ADAMTS4 active-site mutant without the spacer and the TSP-1 domain, C-terminal FLAG tag) (protein)
chain: FASLSRFVETLVVADDKMAAFHGAGLKRYLLTVMAAAAKAFKHPSIRNPVSLVVTRLVILGSGEEGPQVGPSAAQTLRSFCAWQRGLNTPEDSDPDHFDTAILFTRQDLCGVSTCDTLGMADVGTVCDPARSCAIVEDDGLQSAFTAAHQLGHVFNMLHDNSKPCISLNGPLSTSRHVMAPVMAHVDPEEPWSPCSARFITDFLDNGYGHCLLDKPEAPLHLPVTFPGKDYDADRQCQLTFGPDSRHCPQLPPPCAALWCSGHLNGHAMCQTKHSPWADGTPCGPAQACMGGRCLHMDQLQDFNIPQAVDYKDDDDK
- aggrecanase activity: Furin-processed construct H (SEQ ID NO:51) and construct I (SEQ ID NO:52) lack aggrecanase activity

B2: furin-processed construct H (truncated ADAMTS4 active-site mutant without the spacer domain, C-terminal FLAG tag) (protein)
chain: FASLSRFVETLVVADDKMAAFHGAGLKRYLLTVMAAAAKAFKHPSIRNPVSLVVTRLVILGSGEEGPQVGPSAAQTLRSFCAWQRGLNTPEDSDPDHFDTAILFTRQDLCGVSTCDTLGMADVGTVCDPARSCAIVEDDGLQSAFTAAHQLGHVFNMLHDNSKPCISLNGPLSTSRHVMAPVMAHVDPEEPWSPCSARFITDFLDNGYGHCLLDKPEAPLHLPVTFPGKDYDADRQCQLTFGPDSRHCPQLPPPCAALWCSGHLNGHAMCQTKHSPWADGTPCGPAQACMGGRCLHMDQLQDFNIPQAGGWGPWGPWGDCSRTCGGGVQFSSRDCTRPVPRNGGKYCEGRRTRFRSCNTEDCPVDYKDDDDK
- aggrecanase activity: Furin-processed construct H (SEQ ID NO:51) and construct I (SEQ ID NO:52) lack aggrecanase activity

B3: ADAMTS4(p40), auto-digested isoform of human ADAMTS4 (protein)
chain: FASLSRFVETLVVADDKMAAFHGAGLKRYLLTVMAAAAKAFKHPSIRNPVSLVVTRLVILGSGEEGPQVGPSAAQTLRSFCAWQRGLNTPEDSDPDHFDTAILFTRQDLCGVSTCDTLGMADVGTVCDPARSCAIVEDDGLQSAFTAAHELGHVFNMLHDNSKPCISLNGPLSTSRHVMAPVMAHVDPEEPWSPCSARFITDFLDNGYGHCLLDKPEAPLHLPVTFPGKDYDADRQCQLTFGPDSRHCPQLPPPCAALWCSGHLNGHAMCQTKHSPWADGTPCGPAQACMGGRCLHMDQLQDFNIPQAGGWGPWGPWGDCSRTCGGGVQFSSRDCTRPVPRNGGKYCEGRRTRFRSCNTEDCPTGSALT
- aggrecanase activity (Western blot with MAb BC-3 for the 374ARGXX neoepitope): both isoforms have aggrecanase activity

B4: furin-processed mature protein of construct D (protein)
chain: FASLSRFVETLVVADDKMAAFHGAGLKRYLLTVMAAAAKAFKHPSIRNPVSLVVTRLVILGSGEEGPQVGPSAAQTLRSFCAWQRGLNTPEDSDPDHFDTAILFTRQDLCGVSTCDTLGMADVGTVCDPARSCAIVEDDGLQSAFTAAHELGHVFNMLHDNSKPCISLNGPLSTSRHVMAPVMAHVDPEEPWSPCSARFITDFLDNGYGHCLLDKPEAPLHLPVTFPGKDYDADRQCQLTFGPDSRHCPQLPPPCAALWCSGHLNGHAMCQTKHSPWADGTPCGPAQACMGGRCLHMDQLQDFNIPQAGGWGPWGPWGDCSRTCGGGVQFSSRDCTRPVPRNGGKYCEGRRTRFRSCNTEDCPTGSALTFREEQCAAYNHRTDLFKSFPGPMDWVPRYTGVAPQDQCKLTCQARALGYYYVLEPRVVDGTPCSPDSSSVCVQGRCIHAGCDRIIGSKKKFDKCMVCGGDGSGCS
- aggrecanase activity: The furin-processed mature proteins of construct C and D (SEQ ID NOS:47 and 48, respectively) have aggrecanase activity

B5: furin-processed mature protein of construct C (protein)
chain: FASLSRFVETLVVADDKMAAFHGAGLKRYLLTVMAAAAKAFKHPSIRNPVSLVVTRLVILGSGEEGPQVGPSAAQTLRSFCAWQRGLNTPEDSDPDHFDTAILFTRQDLCGVSTCDTLGMADVGTVCDPARSCAIVEDDGLQSAFTAAHELGHVFNMLHDNSKPCISLNGPLSTSRHVMAPVMAHVDPEEPWSPCSARFITDFLDNGYGHCLLDKPEAPLHLPVTFPGKDYDADRQCQLTFGPDSRHCPQLPPPCAALWCSGHLNGHAMCQTKHSPWADGTPCGPAQACMGGRCLHMDQLQDFNIPQAGGWGPWGPWGDCSRTCGGGVQFSSRDCTRPVPRNGGKYCEGRRTRFRSCNTEDCPTGSALTFREEQCAAYNHRTDLFKSFPGPMDWVPRYTGVAPQDQCKLTCQARALGYYYVLEPRVVDGTPCSPDSSSVCVQGRCIHAGCDRIIGSKKKFDKCMVCGGDGSGCSGSAWSHPQFEK
- aggrecanase activity: The furin-processed mature proteins of construct C and D (SEQ ID NOS:47 and 48, respectively) have aggrecanase activity

B6: ADAMTS4(p53), auto-digested isoform of human ADAMTS4 (protein)
chain: FASLSRFVETLVVADDKMAAFHGAGLKRYLLTVMAAAAKAFKHPSIRNPVSLVVTRLVILGSGEEGPQVGPSAAQTLRSFCAWQRGLNTPEDSDPDHFDTAILFTRQDLCGVSTCDTLGMADVGTVCDPARSCAIVEDDGLQSAFTAAHELGHVFNMLHDNSKPCISLNGPLSTSRHVMAPVMAHVDPEEPWSPCSARFITDFLDNGYGHCLLDKPEAPLHLPVTFPGKDYDADRQCQLTFGPDSRHCPQLPPPCAALWCSGHLNGHAMCQTKHSPWADGTPCGPAQACMGGRCLHMDQLQDFNIPQAGGWGPWGPWGDCSRTCGGGVQFSSRDCTRPVPRNGGKYCEGRRTRFRSCNTEDCPTGSALTFREEQCAAYNHRTDLFKSFPGPMDWVPRYTGVAPQDQCKLTCQARALGYYYVLEPRVVDGTPCSPDSSSVCVQGRCIHAGCDRIIGSKKKFDKCMVCGGDGSGCSKQSGSFRK
- aggrecanase activity (Western blot with MAb BC-3 for the 374ARGXX neoepitope): both isoforms have aggrecanase activity

B7: furin-processed protein of construct B (truncated ADAMTS4, catalytic domain with His tag) (protein)
chain: FASLSRFVETLVVADDKMAAFHGAGLKRYLLTVMAAAAKAFKHPSIRNPVSLVVTRLVILGSGEEGPQVGPSAAQTLRSFCAWQRGLNTPEDSDPDHFDTAILFTRQDLCGVSTCDTLGMADVGTVCDPARSCAIVEDDGLQSAFTAAHELGHVFNMLHDNSKPCISLNGPLSTSRHVMAPVMAHVDPEEPWSPCSARFITDFLDNGYGHCLLDKPEHHHHHH
- enzymatic (aggrecanase) activity: The furin-processed protein from this construct is enzymatically inactive (SEQ ID NO:46)

B8: mature protein of construct G (full-length ADAMTS4 active-site mutant E362Q with FLAG tag) (protein)
chain: FASLSRFVETLVVADDKMAAFHGAGLKRYLLTVMAAAAKAFKHPSIRNPVSLVVTRLVILGSGEEGPQVGPSAAQTLRSFCAWQRGLNTPEDSDPDHFDTAILFTRQDLCGVSTCDTLGMADVGTVCDPARSCAIVEDDGLQSAFTAAHQLGHVFNMLHDNSKPCISLNGPLSTSRHVMAPVMAHVDPEEPWSPCSARFITDFLDNGYGHCLLDKPEAPLHLPVTFPGKDYDADRQCQLTFGPDSRHCPQLPPPCAALWCSGHLNGHAMCQTKHSPWADGTPCGPAQACMGGRCLHMDQLQDFNIPQAGGWGPWGPWGDCSRTCGGGVQFSSRDCTRPVPRNGGKYCEGRRTRFRSCNTEDCPTGSALTFREEQCAAYNHRTDLFKSFPGPMDWVPRYTGVAPQDQCKLTCQARALGYYYVLEPRVVDGTPCSPDSSSVCVQGRCIHAGCDRIIGSKKKFDKCMVCGGDGSGCSKQSGSFRKFRYGYNNVVTIPAGATHILVRQQGNPGHRSIYLALKLPDGSYALNGEYTLMPSPTDVVLPGAVSLRYSGATAASETLSGHGPLAQPLTLQVLVAGNPQDTRLRYSFFVPRPTPSTPRPTPQDWLHRRAQILEILRRRPWAGRKVDYKDDDDK
- aggrecanase activity: The E362Q mutation abolished the aggrecanase activity of the mature protein (SEQ ID NO:50) of construct G
